# In paper doi:10.1101/2025.02.24.639830:
# Tested on: LeuO (Escherichia coli (ASKA library overexpression strain))
# Test: EMSA
substance,measurement,value
leuLABCD promoter region EMSA probe,K half,25 nM
